Data: patent US7572600B2, “Enzymatic activities in chemokine-mediated inflammation” (Chemocentryx, Inc., priority 2004, dated 2009)
Where no end group is shown, it is not given here.

B1: CCL23β Δ24: truncated form of CCL23β lacking the 24-residue N-terminal domain, beginning with the SHAAGtide insertion (protein, listed as Homo sapiens)
chain: MLWRRKIGPQMTLSHAAGFHATSADCCISYTPRSIPCSLLESYFETNSECSKPGVIFLTKKGRRFCANPSDKQVQVCMRMLKLDTRIKTRKN

Experiments:
[1] = tested on: monocyte-derived dendritic cells; assay: Calcium mobilization in monocyte-derived dendritic cells; assay type: cell-based, human
Method: Human monocytes were obtained from buffy coats purchased from the Stanford Blood Bank (Palo Alto, Calif.) by sedimentation on Ficoll-Paque (Amersham, Piscataway, N.J.) and selection with anti-CD14 magnetic beads (Miltenyi, Auburn, Calif.) according to the manufacturers' instructions. For generation of dendritic cells, monocytes were cultured for 6 days in RPMI-1640 medium containing 10% FBS (HyClone, Logan, Utah). On days 0, 2 and 4, GM-CSF and IL-4 (both purchased from R&D Systems, Minneapolis, Minn.) were added to the cultures at 1000 WHO unit/ml each. The cells were confirmed to be CD14^−CD1a^+ immature DC by FACS staining on day 6.
(§1) Calcium Mobilization Assay. Cells were loaded for 1 hour with 2 μM indo-1/AM dye (Molecular Probes, Eugene, Oreg.) in culture medium, then washed with 10 ml PBS and resuspended at 10^6/ml in HBSS containing 1% FBS. Cytosolic calcium responses were determined using a Photon Technology International (Lawrenceville, N.J.) fluorimeter, with excitation at 350 nm and dual emission at 400 and 490 nm. Alternatively, cells were loaded with 5 μg/ml Fluo-4 AM dye (Molecular Probes, Eugene, Oreg.), then washed and analyzed on a Fluorometric Imaging Plate Reader 384 (FLIPR^384 Molecular Devices, Sunnyvale, Calif.), with 505 nm excitation and 530 nm emission.
Immature and mature DC preparation. Immature DCs were derived by culturing CD14+ monocytes in T-175 cultured flasks at a density of 10^6 cells/ml in RPMI supplemented with 10% FBS. Recombinant human cytokines GM-CSF and IL-4 (final concentration 1000 and 500 U/ml, respectively) were added on day 0, 2, 4 and 6. Cells were harvested on day 6 as immature DCs and characterized for surface marker expression by flow cytometry. DC maturation was carried out by culturing day-6 immature DCs in RPMI-10% FBS supplemented with GM-CSF, IL-4 and 50 μg/ml polyIC (Sigma, St. Louis Mo.). After two more days of culture, cells were harvested as mature DCs and characterized by surface marker expression by flow cytometry.
(§2) Receptor signaling assay. For individual measurements, cells were loaded for 45 min at room temperature with 2 μM indo-1/AM (Invitrogen, Carlsbad Calif.) in culture medium, then washed with 10 ml PBS and resuspended at 10^6 cells/ml in HBSS containing 0.1% BSA. Cytosolic calcium levels were determined using a Photon Technology International fluorimeter (excitation at 350 nm, ratio of dual emission at 400 and 490 nm). For measuring calcium dose responses, cells were analyzed with a Fluorometric Imaging Plate Reader 384 (FLIPR^384) (Molecular Devices, Sunnyvale, Calif.). Cells were loaded for 1 hr at 37° C. with 5 μM fluo-4 in HBSS with 0.1% BSA, then washed, transferred to black-wall 96-well plates, and subsequently excited at 505 nm with emission recorded at 530 nm with a standard protocol provided by the manufacture. Cells were stimulated with agonists 20 s after the monitoring of fluorescence began. Data were analyzed and plotted in arbitrary units of fluorescence using Prism. To ensure that responses were specific to FPRL1, we utilized a selective small-molecule antagonist of human FPRL1, generated by ChemoCentryx, which was optimized from a high throughput compound library screening approach.

human neutrophils [2] = assay: Chemotaxis of human neutrophils; assay type: cell-based
Method: (§3) Chemotaxis assay. L1.2-CCR1 transfectants, THP-1 cells, human monocytes and human neutrophils were collected by centrifugation and resuspended in HBSS containing 0.1% BSA. Chemotaxis assays were performed in 96-well ChemoTx® microplates (Neuroprobe, Rockville, Md.) as follows. Chemokines were added to the lower wells (final volume 29 μL), and 20 μL of cell suspension (5×10^6 cells/mL) was added to the polycarbonate filter (3 μm pore size for neutrophils, 5 μm for other 3 cell types). After incubation at 37° C. in the presence of 5% CO2 for 1 hr (neutrophils), 90 min (monocytes) or 2 h (THP-1 and L1.2-CCR1), cells were removed from the upper surface of the filter by scraping. Cells that migrated into the lower chamber were quantified by using the CyQuant cell proliferation assay kit (Molecular Probes, Eugene, Oreg.) and analyzed with a Tecan (Durham, N.C.) fluorimeter (excitation at 480 nm, emission at 530 nm). Data were analyzed and plotted in arbitrary units of fluorescence using Prism (GraphPad Software, San Diego, Calif.).
(§4) Chemotaxis assays. L1.2-CCR1 and L1.2-FPRL1 transfectants, monocytes and neutrophils were collected by centrifugation and resuspended in HBSS with 0.1% BSA. The assays were performed in 96-well ChemoTx® microplates (Neuroprobe, Rockville, Md.). Chemokines were diluted in HBSS with 0.1% BSA and added to the lower wells (final volume 29 μL), then 20 μL of cell suspension (5×10^6 cells/mL for monocytes; 2.5×10^6 cells/mL for neutrophils) were added to the polycarbonate filters (5 μm pore size for monocytes and FPRL1 transfectants; 3 μm pore size for neutrophils). After incubation for 90 min (37° C., 100% humidity, 5% CO2), the filters were removed and the cells that migrated into the lower chamber were quantified by using the CyQuant cell proliferation assay kit (Molecular Probes, Oreg.).

human monocytes [3] = assay: Chemotaxis of human monocytes; assay type: cell-based; settings: undigested
Method: as §3, §4

human monocytes [4] = assay: Calcium mobilization in freshly isolated human monocytes; assay type: cell-based; settings: for calcium mobilization: undigested chemokine or peptide, 100 nM (CCL23β up to 250 nM)
Method: as §1, §2

[5] = tested on: murine bone marrow neutrophils; assay: Calcium responses and chemotaxis in murine bone marrow neutrophils; assay type: cell-based, mouse; settings: murine bone marrow neutrophils (not shown)
human neutrophils [6] = assay: Calcium mobilization in freshly isolated human neutrophils; assay type: cell-based; settings: undigested chemokine or peptide (100 nM)
Method: as §1, §2

Row | Molecule | calcium response ([1]; immature DC, undigested) | calcium response ([1]; mature DC) | chemotaxis (human neutrophils [2]) | chemotaxis (human monocytes [3]) | calcium mobilization (human monocytes [4]) | calcium responses and chemotaxis [5] | calcium mobilization (human neutrophils [6]) | magnitude of calcium signal versus CCL15 Δ24/leukotactin (human monocytes [4]; both at 100 nM)
1 | MLWRRKIGPQMTLSHAAG [SHAAGtide] | much smaller calcium response | small amount of signaling activity | vigorous chemotaxis | vigorous chemotaxis | equipotent to CCL23β Δ24 | able to induce calcium responses and chemotaxis | equipotent to CCL23β Δ24 | 
2 | B1 | strong calcium response | diminished | vigorous chemotaxis | vigorous chemotaxis | particularly strong and sustained calcium profile | able to induce calcium responses and chemotaxis | very robust calcium response | at least two fold higher
